Reference: PMC3792999, “Identification and Characterization of a Cold-Active Phthalate Esters Hydrolase by Screening a Metagenomic Library Derived from Biofilms of a Wastewater Treatment Plant” (PLoS ONE, 2013)

Tests used:
Experiment in all cases: purified protein
[1] = tested on: CCCCCOC(=O)c1ccccc1C(=O)OCCCCC; conditions: pH 7.5; 10.0 °C
[2] = tested on: CCCCOC(=O)c1ccccc1C(=O)OCCCC
[3] = tested on: CCCOC(=O)c1ccccc1C(=O)OCCC; conditions: pH 7.5; 10.0 °C
[4] = 10 mM sodium phosphate pH 7.5, 10°C

Substance: DphB (uncultured bacterium)
- Km [1]: 378 ± 18 µM
- Vmax [1]: 45.9 µmol/min/mg
- kcat/Km [1]: 118000 ± 4000 M⁻¹ s⁻¹
- Km ([2]; pH 7.5, 10.0 °C): 561 ± 16 µM
- Vmax ([2]; pH 7.5, 10.0 °C): 40.7 µmol/min/mg
- kcat/Km ([2]; pH 7.5, 10.0 °C): 70000 ± 2000 M⁻¹ s⁻¹
- Km [3]: 271 ± 12 µM
- Vmax [3]: 46.4 µmol/min/mg
- kcat/Km [3]: 166000 ± 5000 M⁻¹ s⁻¹

Substance: DphB (uncultured bacterium; D255A)
- Km [2, 4]: 20300 ± 1170 µM
- kcat [2, 4]: 6.95 ± 1.42 s⁻¹
